{
  "source": "patent US20210371503A1",
  "molecular_target": "prefusion stabilized SARS-CoV-2 S ectodomain (SARS-CoV-2) (UniProt P0DTC2)",
  "assay": "assay not stated; row Binding Affinity Spike Trimer, construct not given",
  "note": "pKd: −log10 of the molar value.",
  "data": [
    {"substance": "REGN10933 (antibody)", "values": [
      {"measurement": "pKd", "value": 8.52}
    ]}
  ]
}
